Source: the Human Domainome abundance scans (Beltran et al. 2025)
± gives the uncertainty stated by the source.

B1: E3 ubiquitin-protein ligase NEDD4-like, residues 539 to 589; numbered along this chain, Q96PU5 (parent)
chain: KTSLNPNDLGPLPPGWEERIHLDGRTFYIDHNSKITQWEDPRLQNPAITGP
B2: Glucocorticoid receptor, residues 419 to 494; numbered along this chain, P04150 (parent)
chain: KLCLVCSDEASGCHYGVLTCGSCKVFFKRAVEGQHNYLCAGRNDCIIDKIRRKNCPACRYRKCLQAGMNLEARKTK

Variants of: B1
Experiment: abundance fitness (aPCA) (normalised: wild type 0, dead -1); higher = more abundant; growth selection in yeast, the domain comes from the species named
Conditions: Homo sapiens

Row | Variant | abundance fitness
1 | P51E | -0.109 ± 0.45
2 | P51R | -0.345 ± 0.25
3 | P51V | -0.65 ± 0.45
4 | P51T | 0.009 ± 0.18
5 | P51S | -0.336 ± 0.12
6 | P51G | 0.13 ± 0.21

Variants of: B2
Experiment: as above
Conditions: Homo sapiens

Row | Variant | abundance fitness
7 | KLCLCCSDEASGCHYGVLTCGSCKVFFKRAVEGQHNYLCAGRNDCIIDKIRRKNCPACRYRKCLQAGMNLEARKTK [V5C] | -0.749 ± 0.15
8 | KLCLFCSDEASGCHYGVLTCGSCKVFFKRAVEGQHNYLCAGRNDCIIDKIRRKNCPACRYRKCLQAGMNLEARKTK [V5F] | -0.874 ± 0.24
9 | KLCLECSDEASGCHYGVLTCGSCKVFFKRAVEGQHNYLCAGRNDCIIDKIRRKNCPACRYRKCLQAGMNLEARKTK [V5E] | -0.96 ± 0.18
10 | KCCLVCSDEASGCHYGVLTCGSCKVFFKRAVEGQHNYLCAGRNDCIIDKIRRKNCPACRYRKCLQAGMNLEARKTK [L2C] | -0.068 ± 0.05
11 | KKCLVCSDEASGCHYGVLTCGSCKVFFKRAVEGQHNYLCAGRNDCIIDKIRRKNCPACRYRKCLQAGMNLEARKTK [L2K] | 0.063 ± 0.045
12 | KICLVCSDEASGCHYGVLTCGSCKVFFKRAVEGQHNYLCAGRNDCIIDKIRRKNCPACRYRKCLQAGMNLEARKTK [L2I] | 0.114 ± 0.075
13 | KPCLVCSDEASGCHYGVLTCGSCKVFFKRAVEGQHNYLCAGRNDCIIDKIRRKNCPACRYRKCLQAGMNLEARKTK [L2P] | -0.39 ± 0.068
14 | KGCLVCSDEASGCHYGVLTCGSCKVFFKRAVEGQHNYLCAGRNDCIIDKIRRKNCPACRYRKCLQAGMNLEARKTK [L2G] | -0.017 ± 0.033
15 | KHCLVCSDEASGCHYGVLTCGSCKVFFKRAVEGQHNYLCAGRNDCIIDKIRRKNCPACRYRKCLQAGMNLEARKTK [L2H] | -0.002 ± 0.091
16 | KVCLVCSDEASGCHYGVLTCGSCKVFFKRAVEGQHNYLCAGRNDCIIDKIRRKNCPACRYRKCLQAGMNLEARKTK [L2V] | -0.02 ± 0.031
17 | KNCLVCSDEASGCHYGVLTCGSCKVFFKRAVEGQHNYLCAGRNDCIIDKIRRKNCPACRYRKCLQAGMNLEARKTK [L2N] | 0.092 ± 0.14
18 | KECLVCSDEASGCHYGVLTCGSCKVFFKRAVEGQHNYLCAGRNDCIIDKIRRKNCPACRYRKCLQAGMNLEARKTK [L2E] | 0.049 ± 0.037
19 | KQCLVCSDEASGCHYGVLTCGSCKVFFKRAVEGQHNYLCAGRNDCIIDKIRRKNCPACRYRKCLQAGMNLEARKTK [L2Q] | 0.029 ± 0.062
20 | KFCLVCSDEASGCHYGVLTCGSCKVFFKRAVEGQHNYLCAGRNDCIIDKIRRKNCPACRYRKCLQAGMNLEARKTK [L2F] | 0.069 ± 0.058
21 | KACLVCSDEASGCHYGVLTCGSCKVFFKRAVEGQHNYLCAGRNDCIIDKIRRKNCPACRYRKCLQAGMNLEARKTK [L2A] | 0.056 ± 0.035
22 | KRCLVCSDEASGCHYGVLTCGSCKVFFKRAVEGQHNYLCAGRNDCIIDKIRRKNCPACRYRKCLQAGMNLEARKTK [L2R] | 0.032 ± 0.035

Row | Variant | abundance fitness
23 | KDCLVCSDEASGCHYGVLTCGSCKVFFKRAVEGQHNYLCAGRNDCIIDKIRRKNCPACRYRKCLQAGMNLEARKTK [L2D] | -0.045 ± 0.066
24 | KYCLVCSDEASGCHYGVLTCGSCKVFFKRAVEGQHNYLCAGRNDCIIDKIRRKNCPACRYRKCLQAGMNLEARKTK [L2Y] | 0.14 ± 0.065
25 | KMCLVCSDEASGCHYGVLTCGSCKVFFKRAVEGQHNYLCAGRNDCIIDKIRRKNCPACRYRKCLQAGMNLEARKTK [L2M] | -0.024 ± 0.057
26 | KSCLVCSDEASGCHYGVLTCGSCKVFFKRAVEGQHNYLCAGRNDCIIDKIRRKNCPACRYRKCLQAGMNLEARKTK [L2S] | -0.023 ± 0.037
27 | YLCLVCSDEASGCHYGVLTCGSCKVFFKRAVEGQHNYLCAGRNDCIIDKIRRKNCPACRYRKCLQAGMNLEARKTK [K1Y] | -0.101 ± 0.083
28 | NLCLVCSDEASGCHYGVLTCGSCKVFFKRAVEGQHNYLCAGRNDCIIDKIRRKNCPACRYRKCLQAGMNLEARKTK [K1N] | -0.12 ± 0.088
29 | ELCLVCSDEASGCHYGVLTCGSCKVFFKRAVEGQHNYLCAGRNDCIIDKIRRKNCPACRYRKCLQAGMNLEARKTK [K1E] | -0.048 ± 0.054
30 | CLCLVCSDEASGCHYGVLTCGSCKVFFKRAVEGQHNYLCAGRNDCIIDKIRRKNCPACRYRKCLQAGMNLEARKTK [K1C] | -0.14 ± 0.1
31 | DLCLVCSDEASGCHYGVLTCGSCKVFFKRAVEGQHNYLCAGRNDCIIDKIRRKNCPACRYRKCLQAGMNLEARKTK [K1D] | -0.002 ± 0.083
32 | MLCLVCSDEASGCHYGVLTCGSCKVFFKRAVEGQHNYLCAGRNDCIIDKIRRKNCPACRYRKCLQAGMNLEARKTK [K1M] | 0.046 ± 0.046
33 | ALCLVCSDEASGCHYGVLTCGSCKVFFKRAVEGQHNYLCAGRNDCIIDKIRRKNCPACRYRKCLQAGMNLEARKTK [K1A] | -0.066 ± 0.055
34 | RLCLVCSDEASGCHYGVLTCGSCKVFFKRAVEGQHNYLCAGRNDCIIDKIRRKNCPACRYRKCLQAGMNLEARKTK [K1R] | -0.141 ± 0.043
35 | ILCLVCSDEASGCHYGVLTCGSCKVFFKRAVEGQHNYLCAGRNDCIIDKIRRKNCPACRYRKCLQAGMNLEARKTK [K1I] | -0.143 ± 0.1
36 | WLCLVCSDEASGCHYGVLTCGSCKVFFKRAVEGQHNYLCAGRNDCIIDKIRRKNCPACRYRKCLQAGMNLEARKTK [K1W] | -0.301 ± 0.068
37 | QLCLVCSDEASGCHYGVLTCGSCKVFFKRAVEGQHNYLCAGRNDCIIDKIRRKNCPACRYRKCLQAGMNLEARKTK [K1Q] | -0.293 ± 0.064
38 | TLCLVCSDEASGCHYGVLTCGSCKVFFKRAVEGQHNYLCAGRNDCIIDKIRRKNCPACRYRKCLQAGMNLEARKTK [K1T] | -0.324 ± 0.062
